{
  "source": "paper PMC9281127",
  "molecular_target": "His-tagged PD-L1 (programmed death-ligand 1) (UniProt Q9NZQ7)",
  "sequence (Q9NZQ7 19-290)": "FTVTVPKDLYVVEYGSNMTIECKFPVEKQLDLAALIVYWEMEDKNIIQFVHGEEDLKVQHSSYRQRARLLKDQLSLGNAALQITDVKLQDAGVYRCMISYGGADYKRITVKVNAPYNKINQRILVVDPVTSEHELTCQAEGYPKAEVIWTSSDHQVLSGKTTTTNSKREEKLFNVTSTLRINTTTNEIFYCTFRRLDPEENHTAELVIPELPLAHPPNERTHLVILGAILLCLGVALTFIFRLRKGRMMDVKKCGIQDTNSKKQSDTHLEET",
  "test": "co-immunoprecipitation (IP: His, IB: Flag)",
  "settings": "co-transfected plasmids, parent: 1.0",
  "data": [
    {"substance": "Flag-tagged ZG16 (zymogen granule protein 16) (from UniProt O60844) K36A; R37A; K79A; R53A; R55A", "values": [
      {"measurement": "ratio to parent", "setting": "HCT116 cells", "result": 0.6},
      {"measurement": "ratio to parent", "setting": "SW480 cells", "result": 0.5}
    ]}
  ]
}
